Measurements published in US20040116336A1, “Peptide derivatives” (priority 2002, published 2004).
Starred links: 1 amine or outer side, 2 acyl side, 3 side chain; linkers in the order of their positions; H or OH if unused. Non-standard residues stand in square brackets, D forms with d. No end group written: not given here. *: point of attachment. Phe(4-Cl) = N[C@@H](Cc1ccc(Cl)cc1)C(=O)O; Adipoyl = O=C(CCCCC(=O)[*:2])[*:1]; Cha = N[C@@H](CC1CCCCC1)C(=O)O; pGlu = O=C1CC[C@@H](C(=O)O)N1; Morpholide = C1CN(*)CCO1; Nle = CCCC[C@H](N)C(=O)O; Dap = NC[C@H](N)C(=O)O; Hexanoyl = CCCCCC(=O)*

Tests used:
[1] = biological target: APJ (orphan G protein-coupled receptor protein); assay: cell-based or functional assay
Sequence of APJ (orphan G protein-coupled receptor protein) (P35414 whole entry): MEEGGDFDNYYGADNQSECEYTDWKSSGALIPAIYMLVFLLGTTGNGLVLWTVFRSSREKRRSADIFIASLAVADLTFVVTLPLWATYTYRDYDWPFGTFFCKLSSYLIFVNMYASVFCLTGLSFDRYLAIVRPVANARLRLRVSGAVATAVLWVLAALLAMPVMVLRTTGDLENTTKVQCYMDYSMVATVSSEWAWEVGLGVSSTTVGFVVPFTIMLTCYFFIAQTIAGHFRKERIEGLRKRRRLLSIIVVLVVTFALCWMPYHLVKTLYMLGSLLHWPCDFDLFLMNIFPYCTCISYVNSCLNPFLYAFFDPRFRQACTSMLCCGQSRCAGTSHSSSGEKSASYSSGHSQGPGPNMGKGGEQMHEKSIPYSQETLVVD

[2] = biological target: APJ (orphan G protein-coupled receptor protein); assay: radioligand competition, compound of Ref. Ex. 2 as labelled ligand, CHO-A10 membrane fraction
[3] = biological target: APJ (orphan G protein-coupled receptor protein); assay: radioligand competition, 125I-labelled compound of Ref. Ex. 1 (100 pM), CHO-A10 membrane fraction

Binder | EC50, inhibition of forskolin-stimulated cAMP production (CHO-A10 clone 6 cells) [1] [nM] | IC50 [2] [nM] | IC50 [3] [nM]
RRQRPRLSARG-Morpholide [Arg-Arg-Gln-Arg-Pro-Arg-Leu-Ser-Ala-Arg-Gly-Mor] | 1.2 | 0.26 | –
[pGlu]RPRLFRRGPMPF [pGlu-Arg-Pro-Arg-Leu-Phe-Arg-Arg-Gly-Pro-Met-Pro-Phe] | 0.15 | 0.81 | –
RPALSHKGP[Cha]PX (not fully specified (residue 12); printed as Arg-Pro-Ala-Leu-Ser-His-Lys-Gly-Pro-Cha-Pro-Phe(Cl)) [Arg-Pro-Ala-Leu-Ser-His-Lys-Gly-Pro-Cha-Pro-Phe(Cl)] | 0.41 | 0.15 | 0.41
XRPRLSHRGPMPF (N-terminal pGlu; peptide derivative; Xaa means pGlu) [pGlu-Arg-Pro-Arg-Leu-Ser-His-Arg-Gly-Pro-Met-Pro-Phe] | 0.2 | 0.4 | –
RRXRPRLSHKGPMPF (N-terminal branched Arg-Arg-Lys(Arg-Arg); peptide derivative; Xaa means Lys(Arg-Arg)) [Arg-Arg-Lys(Arg-Arg)-Arg-Pro-Arg-Leu-Ser-His-Lys-Gly-Pro-Met-Pro-Phe] | 0.57 | 0.84 | 2.9
RPRLSARGP[Cha]PX (not fully specified (residue 12); printed as Arg-Pro-Arg-Leu-Ser-Ala-Arg-Gly-Pro-Cha-Pro-Phe(Cl)) [Arg-Pro-Arg-Leu-Ser-Ala-Arg-Gly-Pro-Cha-Pro-Phe(Cl)] | 0.51 | 0.13 | 1.2
RRQRPRLSHKGP[Nle]PY [Arg-Arg-Gln-Arg-Pro-Arg-Leu-Ser-His-Lys-Gly-Pro-Nle-Pro-Tyr] | 0.28 | 0.027 | 2.7
RPRLFHKGP[Cha]X (not fully specified (residue 11); printed as Arg-Pro-Arg-Leu-Phe-His-Lys-Gly-Pro-Cha-Phe(Cl)) [Arg-Pro-Arg-Leu-Phe-His-Lys-Gly-Pro-Cha-Phe(Cl)] | 0.43 | 0.54 | –
XRPRLFHKGPMPF (N-terminal pGlu; peptide derivative; Xaa means pGlu) [pGlu-Arg-Pro-Arg-Leu-Phe-His-Lys-Gly-Pro-Met-Pro-Phe] | 0.22 | 0.99 | –
[pGlu]RPRLSRRGPMPF [pGlu-Arg-Pro-Arg-Leu-Ser-Arg-Arg-Gly-Pro-Met-Pro-Phe] | 0.069 | 0.73 | –
RPRLSHKGPMPX (C-terminal Nal(2); peptide derivative; Xaa means Nal(2)) [Arg-Pro-Arg-Leu-Ser-His-Lys-Gly-Pro-Met-Pro-Nal(2)] | 0.1 | 0.35 | –
XRPRLSFKGPMPF (N-terminal pGlu; peptide derivative; Xaa means pGlu) [pGlu-Arg-Pro-Arg-Leu-Ser-Phe-Lys-Gly-Pro-Met-Pro-Phe] | 0.24 | 0.95 | –
XRPRLSHKGPXPF (N-terminal pGlu; Cha non-natural residue; peptide derivative; Xaa on the 1st position means pGlu.; Xaa on the 11th position means Cha.) [pGlu-Arg-Pro-Arg-Leu-Ser-His-Lys-Gly-Pro-Cha-Pro-Phe] | 0.35 | 0.16 | 13
RPRLSHKGPMPX (C-terminal Cha; peptide derivative; Xaa means Cha) [Arg-Pro-Arg-Leu-Ser-His-Lys-Gly-Pro-Met-Pro-Cha] | 0.71 | 3.5 | –
RRQRPRLSHKGP[Cha]PX (not fully specified (residue 15); printed as Arg-Arg-Gln-Arg-Pro-Arg-Leu-Ser-His-Lys-Gly-Pro-Cha-Pro-Phe(Cl)) [Arg-Arg-Gln-Arg-Pro-Arg-Leu-Ser-His-Lys-Gly-Pro-Cha-Pro-Phe(Cl)] | 0.53 | 0.33 | 0.47
XRPRLSHLGPMPF (N-terminal pGlu; peptide derivative; Xaa means pGlu) [pGlu-Arg-Pro-Arg-Leu-Ser-His-Leu-Gly-Pro-Met-Pro-Phe] | 0.16 | 3.6 | –
RRQRPRLSHKGPX (oxidized C-terminal residue; peptide; Xaa means Met(O)) [Arg-Arg-Gln-Arg-Pro-Arg-Leu-Ser-His-Lys-Gly-Pro-Met(O)] | 0.48 | 0.62 | –
RPRLFARGP[Cha]PX (not fully specified (residue 12); printed as Arg-Pro-Arg-Leu-Phe-Ala-Arg-Gly-Pro-Cha-Pro-Phe(Cl)) [Arg-Pro-Arg-Leu-Phe-Ala-Arg-Gly-Pro-Cha-Pro-Phe(Cl)] | 1.2 | 0.38 | 2.3
RPRLS[Dap](Hexanoyl)RGP[Cha]P[Phe(4-Cl)] [Arg-Pro-Arg-Leu-Ser-Dap(C6)-Arg-Gly-Pro-Cha-Pro-Phe(Cl)] | 1.1 | 0.45 | 1.1

The remaining lines, values ahead:

EC50, inhibition of forskolin-stimulated cAMP production (CHO-A10 clone 6 cells) [1] [nM] | IC50 [2] [nM] | IC50 [3] [nM] | Binder
0.46 | 0.13 | 8 | RPRLFHKGP[Cha]PF [Arg-Pro-Arg-Leu-Phe-His-Lys-Gly-Pro-Cha-Pro-Phe]
0.081 | 0.23 | – | XRPRLSRKGPMPF (N-terminal pGlu; peptide derivative; Xaa means pGlu) [pGlu-Arg-Pro-Arg-Leu-Ser-Arg-Lys-Gly-Pro-Met-Pro-Phe]
0.55 | 0.046 | 1.4 | RRQRPRLSARGPX (C-terminal Cha; peptide derivative; Xaa means Cha.) [Arg-Arg-Gln-Arg-Pro-Arg-Leu-Ser-Ala-Arg-Gly-Pro-Cha]
0.16 | 0.59 | – | XRPRLSLKGPMPF (N-terminal pGlu; peptide derivative; Xaa means pGlu) [pGlu-Arg-Pro-Arg-Leu-Ser-Leu-Lys-Gly-Pro-Met-Pro-Phe]
0.37 | 0.61 | – | RPRLSHKGPMX (Nal(2) non-natural residue; peptide derivative; Xaa means Nal(2)) [Arg-Pro-Arg-Leu-Ser-His-Lys-Gly-Pro-Met-Nal(2)]
0.3 | 1.3 | – | XRPRLSHKGPMX (N-terminal pGlu; C-terminal Cha; peptide derivative; Xaa on the 1st position means pGlu; Xaa on the 12th position means Cha) [pGlu-Arg-Pro-Arg-Leu-Ser-His-Lys-Gly-Pro-Met-Cha]
0.22 | 0.21 | – | XRPRLSAKGPMPF (N-terminal pGlu; peptide derivative; Xaa means pGlu) [pGlu-Arg-Pro-Arg-Leu-Ser-Ala-Lys-Gly-Pro-Met-Pro-Phe]
0.52 | 0.17 | 0.52 | RPRASHKGP[Cha]PX (not fully specified (residue 12); printed as Arg-Pro-Arg-Ala-Ser-His-Lys-Gly-Pro-Cha-Pro-Phe(Cl)) [Arg-Pro-Arg-Ala-Ser-His-Lys-Gly-Pro-Cha-Pro-Phe(Cl)]
1 | 0.29 | 2.7 | RPRLFHKGP[Cha]PX (not fully specified (residue 12); printed as Arg-Pro-Arg-Leu-Phe-His-Lys-Gly-Pro-Cha-Pro-Phe(Cl)) [Arg-Pro-Arg-Leu-Phe-His-Lys-Gly-Pro-Cha-Pro-Phe(Cl)]
0.3 | 2.6 | – | XRPRLSHFGPMPF (N-terminal pGlu; peptide derivative; Xaa means pGlu) [pGlu-Arg-Pro-Arg-Leu-Ser-His-Phe-Gly-Pro-Met-Pro-Phe]
0.52 | 1.4 | – | XRPRLSHKGPMX (N-terminal pGlu; C-terminal Nal(2); peptide derivative; Xaa on the 1st position means pGlu; Xaa on the 12th position means Nal(2)) [pGlu-Arg-Pro-Arg-Leu-Ser-His-Lys-Gly-Pro-Met-Nal(2)]
0.59 | 0.084 | 2.2 | RPRLSARGP[Cha]PF [Arg-Pro-Arg-Leu-Ser-Ala-Arg-Gly-Pro-Cha-Pro-Phe]
0.42 | 0.13 | 0.42 | RPRLS[Dap](Adipoyl)RGP[Cha]P[Phe(4-Cl)] [Arg-Pro-Arg-Leu-Ser-Dap(Adi)-Arg-Gly-Pro-Cha-Pro-Phe(Cl)]
0.22 | 0.51 | – | RPRLSHKGPMX (C-terminal Cha; peptide derivative; Xaa means Cha) [Arg-Pro-Arg-Leu-Ser-His-Lys-Gly-Pro-Met-Cha]
0.58 | 0.22 | 0.58 | RPRLSHAGP[Cha]PX (not fully specified (residue 12); printed as Arg-Pro-Arg-Leu-Ser-His-Ala-Gly-Pro-Cha-Pro-Phe(Cl)) [Arg-Pro-Arg-Leu-Ser-His-Ala-Gly-Pro-Cha-Pro-Phe(Cl)]
0.49 | 0.16 | – | RRQRPRLSARG-NMe2 [Arg-Arg-Gln-Arg-Pro-Arg-Leu-Ser-Ala-Arg-Gly-NMe2]
0.65 | 0.1 | 1 | RPRLSARGP[Cha]X (not fully specified (residue 11); printed as Arg-Pro-Arg-Leu-Ser-Ala-Arg-Gly-Pro-Cha-Phe(Cl)) [Arg-Pro-Arg-Leu-Ser-Ala-Arg-Gly-Pro-Cha-Phe(Cl)]
